We go through one molecule from patent US20240182596A1 (TUBULIS, published 2024).

As usually defined, the Kd is the equilibrium constant for the complex coming apart. As usually defined, the EC50 (read off the curve) is the midpoint of the concentration-response curve.

In test [1] the target is T1, human Napi2a-mCherry on HEK293 cells (human, UniProt Q06495 1-639).
T1 construct: whole, on cells; also called Napi2a (SLC34A1); not shown: mCherry fusion
T1 sequence (looked up): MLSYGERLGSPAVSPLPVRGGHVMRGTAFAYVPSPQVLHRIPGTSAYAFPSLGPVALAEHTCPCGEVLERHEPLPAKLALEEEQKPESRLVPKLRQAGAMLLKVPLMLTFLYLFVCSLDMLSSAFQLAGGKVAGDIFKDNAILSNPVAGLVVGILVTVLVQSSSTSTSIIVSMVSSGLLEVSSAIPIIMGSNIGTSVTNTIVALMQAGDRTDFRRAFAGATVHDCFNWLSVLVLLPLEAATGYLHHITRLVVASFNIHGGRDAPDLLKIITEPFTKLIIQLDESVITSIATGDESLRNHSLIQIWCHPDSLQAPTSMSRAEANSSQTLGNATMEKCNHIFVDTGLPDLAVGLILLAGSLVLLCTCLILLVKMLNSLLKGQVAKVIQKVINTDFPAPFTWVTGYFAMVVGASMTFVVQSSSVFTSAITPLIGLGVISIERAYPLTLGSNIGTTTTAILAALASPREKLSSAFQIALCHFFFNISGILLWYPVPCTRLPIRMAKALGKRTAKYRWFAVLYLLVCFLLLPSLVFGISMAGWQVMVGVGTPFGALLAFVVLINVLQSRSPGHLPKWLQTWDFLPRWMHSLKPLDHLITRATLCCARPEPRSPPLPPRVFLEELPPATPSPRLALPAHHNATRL
The experiment in a line: flow cytometry on HEK293 cells expressing human Napi2a-mCherry (panel Napi2a-HEK293), MFI ratio to the non-specific binding control.

The target of test [2] is T2, recombinant hexameric C1q complement protein (human) (human, UniProt P02745 23-245; P02746 28-253; P02747 29-245).
T2 construct: also called complement factor C1q
T2 sequence (P02745 23-245 limits assumed, chain 1 of 3): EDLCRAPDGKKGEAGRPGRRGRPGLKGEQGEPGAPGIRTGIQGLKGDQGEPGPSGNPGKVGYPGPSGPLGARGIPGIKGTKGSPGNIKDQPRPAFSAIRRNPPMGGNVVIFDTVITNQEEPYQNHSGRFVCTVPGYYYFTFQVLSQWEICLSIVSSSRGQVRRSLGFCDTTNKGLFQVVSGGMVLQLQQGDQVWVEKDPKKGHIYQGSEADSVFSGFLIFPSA
T2 sequence (P02746 28-253 limits assumed, chain 2 of 3): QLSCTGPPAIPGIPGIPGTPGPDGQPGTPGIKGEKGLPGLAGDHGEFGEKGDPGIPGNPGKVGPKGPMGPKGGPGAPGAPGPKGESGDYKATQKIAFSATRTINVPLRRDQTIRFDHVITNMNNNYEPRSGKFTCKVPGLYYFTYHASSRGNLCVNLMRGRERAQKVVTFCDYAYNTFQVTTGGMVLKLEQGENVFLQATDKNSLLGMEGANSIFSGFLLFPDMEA
T2 sequence (P02747 29-245 limits assumed, chain 3 of 3): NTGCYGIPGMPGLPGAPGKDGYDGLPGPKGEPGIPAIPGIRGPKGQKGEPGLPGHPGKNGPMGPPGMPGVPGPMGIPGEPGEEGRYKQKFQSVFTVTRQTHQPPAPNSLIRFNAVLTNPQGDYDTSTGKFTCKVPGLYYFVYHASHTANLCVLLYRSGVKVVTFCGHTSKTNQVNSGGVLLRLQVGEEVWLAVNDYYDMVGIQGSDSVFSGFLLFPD
Kind of test: HTRF Human C1q Binding Kit (Cisbio), HTRF ratio at 70 nM antibody with the diluent-only background subtracted. Background: Time-resolved FRET reads energy transfer from a long-lived donor to a nearby acceptor.
Protocol: C1q interaction studies were performed using the HTRF Human C1q Binding Kit (Cisbio) according to the manufacturer's instructions. […] If the antibodies bind to human C1q, an anti-C1q antibody labelled with Europium cryptate (fluorescence donor) can come in close proximity to the fluorescence acceptor and fluorescence resonance energy transfer (FRET) is triggered. Fluorescence emission at 665 nm is measured on a microplate reader Infinite M200 Pro (Tecan)._Graphs show means of n=2±SD.
HTRF ratio was calculated by dividing the acceptor emission signal at 665 nm by the donor emission signal at 620 nm and multiplying by 10000.

Test [3] addresses T3, HEK293 cyno-NaPi2B-mCherry (Macaca fascicularis, UniProt A0A2K5UHY1).
T3 construct: full-length mCherry fusion stably expressed on HEK293 cells; also called cynomolgus full-length NaPi2b-mCherry on HEK293 cells
T3 sequence (target on cells): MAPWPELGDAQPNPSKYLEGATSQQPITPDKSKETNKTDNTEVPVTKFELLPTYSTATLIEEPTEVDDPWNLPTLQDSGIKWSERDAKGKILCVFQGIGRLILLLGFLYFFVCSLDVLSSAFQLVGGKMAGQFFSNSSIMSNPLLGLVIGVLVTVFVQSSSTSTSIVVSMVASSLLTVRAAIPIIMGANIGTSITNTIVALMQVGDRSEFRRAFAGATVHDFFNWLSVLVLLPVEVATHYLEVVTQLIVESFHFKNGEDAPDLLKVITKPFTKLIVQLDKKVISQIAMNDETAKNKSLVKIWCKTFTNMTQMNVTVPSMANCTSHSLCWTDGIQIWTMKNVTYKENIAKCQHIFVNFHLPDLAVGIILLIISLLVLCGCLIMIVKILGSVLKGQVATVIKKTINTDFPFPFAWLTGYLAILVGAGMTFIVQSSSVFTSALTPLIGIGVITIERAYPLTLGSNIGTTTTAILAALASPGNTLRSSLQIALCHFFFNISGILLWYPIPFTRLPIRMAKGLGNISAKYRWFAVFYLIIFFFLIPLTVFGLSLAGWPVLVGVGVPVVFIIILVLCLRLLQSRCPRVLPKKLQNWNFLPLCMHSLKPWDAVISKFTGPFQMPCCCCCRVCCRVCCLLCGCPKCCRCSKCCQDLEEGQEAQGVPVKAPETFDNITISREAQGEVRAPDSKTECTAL
The experiment in a line: flow cytometry on HEK293 cells stably expressing cynomolgus full-length NaPi2b-mCherry, Alexa-dye anti-human IgG H+L secondary antibody, MFI ratio, one-site specific binding fit; the Kd table prints no unit, the concentration axis is in nM. Background: A flow cytometer gives signals particle by particle.
Description: HEK293 cells stably overexpressing human and rat Napi2b were generated by stable integration of a human or rat full-length Napi2b-mCherry-(GGGS)3x-mCherry expression construct under control of a human EF1 promoter and a Puromycin-selection cassette under a CMV promoter into the parental HEK293 cell line. In brief, cells were transfected with the linearized plasmids using Lipfectamine 2000 (Thermo Fisher) and selected with Puromycin antibiotic. Cells were then single cell cloned in 96-well plates via serial dilution under continuous antibiotic selection. Clones were screened for target expression via flow cytometry and mCherry fluorescence via flow cytometry and fluorescence microscopy. Target- and mCherry-positive clones were expanded and used for further experiments. […] Binding of antibodies was investigated on mCherry-positive cells. Mean fluorescence intensity (MFI) ratios were normalized to the secondary antibody control. The assay was performed in duplicates and data points were analyzed by a non-linear regression using a one-site specific binding model to derive KD values using Prism 9 software.

Another test has as its target T4, FcγRIIa (CD32) (H131) (Fused to the SmBiT luciferase fragment (Promega Lumit reagent), not carried in the letters).
T4 construct: m20 joins both polymorphic variants; also called H131 variant of m20; not shown: SmBiT tag (and any linker or purification tag) of Promega's FcγR-SmBiT fusion
T4 chain: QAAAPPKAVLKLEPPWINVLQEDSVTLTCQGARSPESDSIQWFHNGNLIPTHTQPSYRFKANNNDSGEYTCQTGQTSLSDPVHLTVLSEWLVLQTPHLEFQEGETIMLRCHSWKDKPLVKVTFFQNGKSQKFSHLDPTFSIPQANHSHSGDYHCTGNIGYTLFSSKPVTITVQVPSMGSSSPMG
The experiment in a line: Lumit FcγRIIa (H131) Binding Immunoassay (Promega), left panel FcγRIIa (CD32) (H131), competition with Tracer-LgBiT for FcγR-SmBiT, n=1.

The target of test [4] is T5, human NaPi2b on NaPi2b-positive cell lines OVCAR-3 and HCC-78 (human, UniProt O95436 1-690).
T5 construct: Endogenous protein
T5 sequence: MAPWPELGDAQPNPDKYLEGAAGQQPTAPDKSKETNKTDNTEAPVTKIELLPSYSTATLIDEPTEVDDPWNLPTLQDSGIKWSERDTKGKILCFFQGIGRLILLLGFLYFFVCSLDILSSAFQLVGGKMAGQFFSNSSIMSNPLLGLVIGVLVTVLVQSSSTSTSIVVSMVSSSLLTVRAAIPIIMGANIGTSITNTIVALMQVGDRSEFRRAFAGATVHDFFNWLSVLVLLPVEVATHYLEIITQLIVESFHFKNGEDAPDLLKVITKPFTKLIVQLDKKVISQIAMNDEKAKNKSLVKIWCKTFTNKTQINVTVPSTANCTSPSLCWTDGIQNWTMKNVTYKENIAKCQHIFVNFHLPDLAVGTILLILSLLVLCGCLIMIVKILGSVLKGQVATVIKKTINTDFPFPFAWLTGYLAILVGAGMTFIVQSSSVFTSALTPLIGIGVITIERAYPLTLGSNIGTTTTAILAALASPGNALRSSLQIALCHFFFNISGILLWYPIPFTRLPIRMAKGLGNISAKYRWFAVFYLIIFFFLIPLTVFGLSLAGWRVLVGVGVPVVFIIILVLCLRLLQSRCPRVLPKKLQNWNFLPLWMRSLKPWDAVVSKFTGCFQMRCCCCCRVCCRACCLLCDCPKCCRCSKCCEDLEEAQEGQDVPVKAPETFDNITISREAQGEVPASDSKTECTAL
The experiment in a line: flow cytometry on NaPi2b-positive OVCAR-3 cells, Alexa-dye-labeled anti-human IgG H+L secondary antibody, MFI ratio normalized to the non-specific binding control.
Protocol: To determine concentration-dependent binding, NaPi2b-positive OVCAR-3 and HCC-78 were incubated with antibodies in concentrations ranging from 0.00075 to 30 μg/ml, stained with an Alexa-dye-labeled anti-human IgG H+L secondary antibody (Thermo Fisher Scientific), and analyzed by flow cytometry. Mean fluorescence intensity (MFI) ratios were normalized to the non-specific binding control. The assay was performed in duplicates and data points were analyzed by a non-linear regression using a one-site specific binding model using Prism 9 software.

Protocol for FcγRIIa (CD32) (H131): Luminescence is measured on a microplate reader Infinite M200 Pro (Tecan). Graphs show n=1.
Luminescence was measured on a microplate reader Infinite M200 Pro (Tecan). Graphs show n=1.

B1: AV25 mAb, LALA-silenced (AV25 HC-LALA) (antibody, human IgG1, kappa, L234A L235A)
heavy: not shown
light: DIQMTQSPSSLSASVGDRVTITCSASQDIGNFLNWYQQKPGKTVKVLIYYASSLYSGVPSRFSGSGSGTDYTLTISSLQPEDFATYYCQQYSKLPLTFGQGTKLELKRTVAAPSVFIFPPSDEQLKSGTASVVCLLNNFYPREAKVQWKVDNALQSGNSQESVTEQDSKDSTYSLSSTLTLSKADYEKHKVYACEVTHQGLSSPVTKSFNRGEC
notes: also called unmodified AV25 mAb
For B1, the binding result in test [1] is listed as “no binding (tested: 200 nM)”; in test [2], “no binding (tested: 70 nM)”; with FcγRIIa (CD32) (H131), “no binding”. The Kd in test [3] was 1.43 nM. Further, in test [4], the half-maximal effective concentration (EC50 (read off the curve)) is roughly 0.5 µg/mL.
